# Measured values reported in patent EP0607332B1.
# Biological target: CD2 (human) (UniProt P06729)
# Test: cell-based or functional assay
# Chain of UniProt P06729 (P06729 25-351 limits assumed, form in doubt): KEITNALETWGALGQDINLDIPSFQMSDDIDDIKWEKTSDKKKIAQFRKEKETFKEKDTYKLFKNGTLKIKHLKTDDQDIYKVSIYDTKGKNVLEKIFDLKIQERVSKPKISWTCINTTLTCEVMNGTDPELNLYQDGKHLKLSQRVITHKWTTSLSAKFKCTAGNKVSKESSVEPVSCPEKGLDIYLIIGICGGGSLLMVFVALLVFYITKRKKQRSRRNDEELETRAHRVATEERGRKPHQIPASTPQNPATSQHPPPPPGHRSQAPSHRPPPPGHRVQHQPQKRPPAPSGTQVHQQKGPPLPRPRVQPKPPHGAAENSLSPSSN
substance,measurement,value
anti-CD2 monoclonal antibody TS2/18,"inhibition of allogeneic T cell activation by normal skin epidermal cells, 50 ug per ml antibody",40%
same,"inhibition of autologous T cell proliferation ([3H]TdR incorporation) in response to lesional psoriatic epidermis, 50 ug/ml antibody, against isotype-matched control",60%
